Assay: purified protein yield per well (BCA); higher = higher soluble expression
Method: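 Candidate PET hydrolases were expressed in E. coli C41(DE3) in 2 mL autoinduction cultures in 24-deep-well plates, Ni-bead purified and released by SUMO protease cleavage on an OT-2 robot. Yield per well was measured by BCA; values below 25 ug (0.1 mg/mL) are below the detection threshold. Melting temperature was measured by differential scanning fluorimetry with Sypro Orange, ramping from 25 C at 0.3 C/step.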

**Q.** For “MGSNPYQRGPDPTTSSLEASRGPFSVASFTVSRPSGYGAGTVYYPTNAGGKVGAIAIVPGYTARQSSINWWGPRLASHGFVVITIDTNSTLDQPSSRSSQQMAALRQVVSLSGTSSSPIYNKVDTSRLGVMGWSMGGGGSLISARNNPSLKAAAPQAPWNSSKNFSSVTVPTLIIACENDTIAPVNSHALPFYNSMSRNPKQYLEINGGSHSCANSGNSNQALIGKKGVAWMKRFMDNDTRYSSFACSNPNSSSVSDFRTENCSAS [TEP184]”, which “purified protein yield per well” value is on record?
**A.** The value was under 25 µg.

**Q.** For “DENPLERGPDPTESFIEQRRGNYDVAQRSINRMGSDGFRNGTIYYPTDSSDGQFGVIAISPGYTAGESSIAWLGARMASFGFVVVTINTTTRYDQPRQRSTQLLAALDHAMEDSVVGPMIDPERQAVMGHSMGGGGALQAAESRPEIDAVIPLTPWNLKRNWRNIDAATLIIGAERDTIASVRTHSIPFYESLTGADQRGYLELRGASHFAPNFSNTTIAKYSVAWMKRHLDDDERYEKFLTPGPTVGYSSGVSDYRLQ [DP097]”, which “purified protein yield per well” value is on record?
**A.** The value was under 25 µg.

**Q.** With “LKADGPYAVSSQTVKGNGFGAGTVYSPNTPGKYAVVAVCPGFVSAESSMTAISKRLATHGFVVVTIATNTLFDFPSSRATQLLAALKTVTALTTGPVAGKMDTSRQGVSGWSMGGGGTLEAAGATPGLVSAVAYAPWDTSTTKMKVNKVPVAIIGGSADTVASVSAHSQKFYDAIPATTPKMLPVINGADHFFPTKASEPASYHNI [ESM072]” as the sequence, how does the “purified protein yield per well” value read?
**A.** Its value is under 25 µg.

**Q.** For “MASVAAQYGPFATAQITVPPGNGFNGGFIYYPTDTSHTYGAVAIVPGYTALFANEEAWMGPRLASFGFVVIGVETNNRNDYDTARGTQLLAALDYLTNSSAVRDRVDRNRLSVIGHSMGGGGALYAATQRPSLKAAIGLAPFKPSGNLASDNVPTMIIGGINDTTVTPSYLDGLYPTLPASTPGAYIQLANADHLYFTRPNDIELRSQIEWLKIFVDNDTRYTQFLCPSIKDTTGIVRSSVKCSTIPSGGSTPPSSPSVPPSSPPSGPQRILGSQSGRCVDVPNATHDNGTRVQLYDCNGQANQQWTYTSSKQLTVYGNVCLDAAGSGNGSAVQIYSCNGQPNQQWNVNANGTITGVQSGRCLDVWGTGNGQQFQLWDCNGQANQRFGLS [ESM074]”, which “purified protein yield per well” value is on record?
**A.** Its value is under 25 µg.

**Q.** Which “purified protein yield per well” value does the source give for “CGTTTSTLTTPAVTPQTLSGAATNPYERGPAPTTALLEAARGPYATASTTVPRSSVSDFGGATIYYPTSTADGTFGGVAISPGYTGTQASVAWLGPRLASHGFVVIVIDTLSRYDYPSSRGDQLRAALRYLTTSSAVRTRVDATRLAVMGHSMGGGGALEAAKDNPALKAAIPLTPWNTDKSWPELTTPTLIFGAQNDSVAPVSSHAIPFYTSLASTLPKAYLELRGASHGAPTSTNTTIAKYAVAWLKRFEDADRRYDPFLCPTPAVSTLLSDARSTCPFN [DP069]” here?
**A.** The value was under 25 µg.

**Q.** Which “purified protein yield per well” value does the source give for “ATGPSAPCTNCTRGPAPTTAALKSNTGPFTTAKFSVSGLLKGFGNSTVYYPTNTTGKMGAIAVIPGFLSYEDSIEWWGPRLASHGFVVMTMNTSTIYDQPDSRATQLSKALDYVISQSNTSSSPIYGKVDSTRLGAIGWSMGGGGSLKLSTQRSLNAIIPQAPYYAGLNSFNTIKTPALILACSADAVAPVGVHASPFYNKIPSTTPKAFLEIYGGSHFCANSGYPNQDLLGLYGISWMKRFIDFDTRYSQFLCGPNHTASGTISEYRQNCPY [ESM019]” here?
**A.** Its value is under 25 µg.

**Q.** Which “purified protein yield per well” value does the source give for “ADNPYQRGPDPTVASVAATRGTFATAQLTVPPGNGFGGGYIYYPTDTSHGTWGAVAIVPGYSALFANEEAWMGPWLASFGFVVIGVETNTRSDGADARATELLAALDYLTQQSAVRDRVDAGRLAVMGHSAGGAGTILAAERRPALKAAVGLAPGTPGSLSLATDKVPMMVIGGQTDPTVTPAYLDNLYAGMPTTTPSDFVQIAGADHLFFTRANNTEMKVLIPWLKIFLDNDTRYTQFLCPSLADPSGISLYRSKCPYLPPGTTSPSPSSSVTPSSPSSPSSPSTGCTAGYRTVGQWPGGFQGEVTVTAGSAAISGWTVNWTLGSGQSVTQLWNGTLTTSGSAVTVRNASYSGSVPAGGSVVFGYLADGTPSTPLLTCTGQ [ESM032]” here?
**A.** The value was under 25 µg.

**Q.** Which “purified protein yield per well” value does the source give for “NTNVPSQACNLTNANGCDSIAILNLTINQADTLYTNIITCDNYTWDGTTYTNSGIYNNVYTNSNGCDSILLNLITIPGPFSVSNIDESSGIRNGLDYDGATIYYPDNGNYLSSIVIVPGFMNTELTVQNWGPFLASYGIVTMTIGTNALTDSEFQRRDALIDAIISLKDENNRSLSPLFGRLNTSSISVGGFSKGGGGAQLVASLDSSIKAIVALYPFIDNPIVSDFDHNIPTFIISGQLDVIAPPAQHADIHYDLIPNSTKKLKYELSVGTHDALSGPYGGLNQVGERVLSFLGLFLENDSCYCPLLDITPSLSSRSKSAPLTKSLMILPAATDALRAGSKSTSAKLAEAVA [TEP057]” here?
**A.** Its value is under 25 µg.

**Q.** For “ADNPYERGPAPTNSSIEASRGPFAVSETSVSSLVSGFGGGTIYYPTSTSAGTFGAVAISPGYTGTQSTMAWLGPRLASQGFVIFTIDTNSVYDQPDSRASQLLAALDYLTQQSTVRTRIDSSRLGVMGHSMGGGGTLRAASQRPSLQAAIPLTGWHTTKNWSSVRVPTLVVGAESDSVAPVSSHSEPFYTSLPSTLDKAYLELNNASHFAPNSSNTTIAKYSISWLKRFIDNDTRYEQFLCPAPGRSTLIEEYRDTCPHS [TEP028]”, which “purified protein yield per well” value is on record?
**A.** The value was under 25 µg.

**Q.** Which “purified protein yield per well” value does the source give for “SQGTFGAAVVSPGFLSPQVAWAGPRIASHGFVVLTIDTNTIFDSPTSRSQQLQAALSYLVSPASGVANRIDPSRLAAMGHSMGGGGTLELAARLPTLQAAVPLQPWDIAQSFSGIRVPTMIIGAQADFIAPVASHSEPFYQQVPATTEKAYLEVAGADHLIGLLGNPTQARYSVAWLKRYVDDDTRYDQFICPPPSGPTISEYRNTCPP [TEP153]” here?
**A.** The value was under 25 µg.

**Q.** With “AEDNPHERGPAPTQQSIEAEKGPFEVDKVTVPGGDGFAGGTIYFPKDTSKGKFGGVAISPGFMSFEAMVSWYGPRLASQGFVVFTIGTFTPMDIPSSRADQLLASLKFLVEKSPAKDRVDGTRLALMGHSMGGGGTLHAAARTPGLQAAIPLTPWELTSDFSKVQVPTLVFTGQADFVAPASMGKSFYQSIPDSTEKGYVELAGGSHFDPLFPNVTYAKYSISWLKRFVDNDTRYDQFLCPVPKDPKLSAIEETCPLG [DP013]” as the sequence, how does the “purified protein yield per well” value read?
**A.** Its value is under 25 µg.

**Q.** Which “purified protein yield per well” value does the source give for “MASITNPGPYSVSLLIEGVDDIRNGPDYDGATIYYPSNGVPPYAGIAIIPGYCGVETDIENWGPFYASHGIIAITLGTNNPCADWPAVRALALLDAIETIKSENTREGSPLNGKVDVNSFAVSGWSMGGGGAELAASIDPSLKAVVGLCPWLDLNGFETSDLIHDVPVLIFTGQNDDIAGSAEYGYMHYTNTPNSTDKLYFEIENEGHEAANAPNMAGGEKGIYALSWLTI [TEP051]” here?
**A.** The value was under 25 µg.

**Q.** Which “purified protein yield per well” value does the source give for “DSPYERGPDPTERSIEATRGPFSVSTISVSDFSTPGFGAANITYPTSRSEGTFGVVAISPGYTAGESTIAWLRPRIASQGFVVISFDTNSRTDFPSSRGDQLLAALDYVIEDSSVRDRVDGSRQAVMGHSMGGGGSLEAASDRRSIEAVVGLTPWNSDKTWSEVDAASLMIGAENDSVAPARTHAIPFYNSLTGAEDRAYLELDGASHLAPTFSNTEIAKYSISWLKRFVDDDDRYDQFLCPAPSTGFGSPLSDSRVSCPLG [DP098]” here?
**A.** Its value is under 25 µg.

**Q.** For “VQIGPNPTKASLEASSGPFTVGKFTISRPSGYAAGTVYYPTNAGAKVGVISIVPGFVSYQSSVAWWGPRLASHGFVVVTIDTNTTVDQPDSRSRQQLAALDQVVALGNNSSSPLYNKIDGTRTGVMGWSMGGGGSLISAKNRPSIKAAAPQAPWASLTSFSSLTVPTLIFSCQSDIVAPVATHANSFYNEMSRNPKQLLEKTLGDHFCMNSANPTVGLKGVAWMKRFIDGDTRYTTFACSNPNAFGFSDFRTARCS [ESM111]”, which “purified protein yield per well” value is on record?
**A.** Its value is under 25 µg.

**Q.** For “EENPYARGPAPTNASIEADRGSFQTATEKVPAGQGFGGGTIHYPTDTGQGTFGAIAIAPGFFETESAIAWYGPRLASQGFVVITFSTKSTWDTPDLRSDQLLAALRYVTDKSQAKDRVDPGRLAVMGHSMGGGGSLIAAQKAPTLKAAIPLTGWNPNTVFSDLKVPTFVVSAQNDFIAPDGSHSRPFYQSLPESLDKAYLLLAGAGHMAPTKPNVTIAKYSLSWLKRFVDEDTRYDQFLCPLPANDPKIAVYRGTCPLG [TEP064]”, which “purified protein yield per well” value is on record?
**A.** The value was under 25 µg.

**Q.** For “NPYERGPAPTTASLEASRGPFATSSFTVSRPSGYGAGTVYYPTNAGGTVGAIAIVPGFLARQSSINWWGPRLASHGFVVITIDTNSTFDQPTSRSRQQLAALDQVAALARTSSSPIYNRVDTTRMGVMGWSMGGGGTLISAQNRPSLKAAAPQAPWNNSTNFSSVTVPTLILACESDSTAPVNQHASPFYNSMSRNSKQYLEINNGSHSCANSGNSNQPLIGKRGVAWMKRFMDNDTRYTSFACANPNSTRVSEFRTANCS [ESM076]”, which “purified protein yield per well” value is on record?
**A.** The value was under 25 µg.

**Q.** With “MVSGTATATPAATAAHPVRAAANPYERGPAPTVASVEAPLGPYAVSRITVARSSVSGFGGGTVHYPTSTADGTFGAVAVSPGFTGTQSSIAWYGPRLASQGFVVLTIDTLTGLDQPASRGRQLLAALDYLTGESAVRGRIDRTRLGVMGHSMGGGGSLEAAKSRTSLKAAIPLTGWNLDTTWPEVRTPTLVVGADGDTVAPVAAHSEPFYASLPGTLDKAYLELKGAVHRTPITANTTIAKYSVSWLKRFIDNDTRYERFLCPLPAPGPTIAEYRGNCPHT [TEP118]” as the sequence, how does the “purified protein yield per well” value read?
**A.** The value was under 25 µg.

**Q.** For “QVGPTPTSSSLNVTAGPFAVSSSRVFSPRGFGGGTIYYPTTSGQYGVVAMSPGFTATESSIAWLGRRLATHGLVVITINTNSTYDQPASRATQLMAALNHVLNSASSTVRSRVDSSKLAVAGHSMGGGGALIAAQNNPTLKAALPLTPWNTSTRFDGVRVPTLIVGADGDSVARVASHARPFYASLPATTFKAYAELNGASHFAPNSTNTPIGRYGVAWMKRFVDADTRYSPFLCGAAHDAYATSAVFDRYNDNCPY [ESM085]”, which “purified protein yield per well” value is on record?
**A.** Its value is under 25 µg.

**Q.** For “APQAPENPYQRGPAPTEQSIVADRGSFEVERISVGSWSGPGFNKGTIYAPKDRSQGTFGAIAVSPGFVSPEYLISWYGERLASRGFVVMTIETTTLYDQPAQRGDQLLAALDYVVSDDSPVRDRVDPNRLAVMGHSMGGGGTLHAVKERKSLKAAVPLMPWNLFTDWGDVQTPTMIIGAQNDLIASVGLHSEPFYNSLRSAREKAYLEMDGAGHLVANSPNDTIAKYTIAWMKRYVDNDTRYEQFLCPAPSRDRNISEYRDTCPGS [DP015]”, which “purified protein yield per well” value is on record?
**A.** The value was under 25 µg.

**Q.** With “DEIGQAPTPSNITGSGSFSTTSSTITGQSGFGGGTVYYPTASGKYPVVAMVPGFLSDWSSISWLGPRVASWGFVVVGANTNSGLDDPTSRGDQLLAALNWAVNSSPTAVRGKTDGTRRGVAGWSMGGGGTLEALAKDTSGVVKAGVPLAPWHNDKSWNQVNEPVFLIGGENDGVASPDSHAIPFYNSLGGPKSFLERAGANHFFPNSSDPTVSRAVVSFLKRHVSADNRFSPYVCGFSGSAVSDFRSNSC [ESM133]” as the sequence, how does the “purified protein yield per well” value read?
**A.** The value was under 25 µg.

**Q.** Which “purified protein yield per well” value does the source give for “GPGMEGNPYQRGPAPTTASIEAPTGAFAVSNASVPGGNGFGGGTLTYPTDTSQGTFGAVVVTPGFLSPEMKWYGPRLASQGFVVLTIATNTAVDQPGARAAQMLAALRYLVEQSPVKNRVDGSRLAVMGHSMGGGGSLEAAEAYPALKAAIPLEPWDLGKSFSAVRTPTLIVGGQSDWIAPVGQHAVPFYNSIPAGVNKAYIELAGGSHFVPMSPNVTIAKYSIAWLKRFVDNDTRYDQFLCPVPQAAALSVSKGTCPHT [TEP175]” here?
**A.** Its value is under 25 µg.

Source: the supplement of paper PMC12455559
